Test results: patent US20110118131A1 (published 2011)
Substitutions are numbered along the chain they refer to. In names and notes the source's numbering stands.

B1: XPA23 heavy chain I51L (Fab, V domains shown)
VH: EVQLLESGGGLVQPGGSLRLSCAASGFTFSKYFMFWVRQAPGKGLEWVSVLSPSGGMTRYADSVKGRFTISRDNSKNTLYLQMNSLRAEDTAVYYCARVGYGGNSDYWGQGTLVTVSS
VL: DIQMTQSPSSVSASVGDRLTIICRASQDINRWLAWYQQTPGNAPKLLIHSATSLQSGVPSRFSGSGSGTDFTLTINSLQPEDFATYYCQQADSFPLTFGGGTKVEIK
notes: Fab, periplasmic extract; also called C5A I51L
B2: XPA23 heavy chain K31L (Fab, V domains shown)
VH: B1 VH with K31L, L51I
VL: B1 VL
notes: Fab, periplasmic extract; also called C5A K31L
B3: XPA23 heavy chain I51V (Fab, V domains shown)
VH: B1 VH with L51V
VL: B1 VL
notes: Fab, periplasmic extract; also called C5A I51V
B4: XPA23 heavy chain I51T (Fab, V domains shown)
VH: B1 VH with L51T
VL: B1 VL
notes: Fab, periplasmic extract; also called C5A I51T
B5: XPA23 heavy chain N104A (Fab, V domains shown)
VH: B1 VH with L51I, N104A
VL: B1 VL
notes: Fab, periplasmic extract; also called C5A N104A
B6: XPA23 heavy chain N104G (Fab, V domains shown)
VH: B1 VH with L51I, N104G
VL: B1 VL
notes: Fab, periplasmic extract; also called C5A N104G
B7: XPA23 heavy chain M57T (Fab, V domains shown)
VH: B1 VH with L51I, M57T
VL: B1 VL
notes: Fab, periplasmic extract; also called C5A M57T
B8: XPA23 heavy chain M57L (Fab, V domains shown)
VH: B1 VH with L51I, M57L
VL: B1 VL
notes: Fab, periplasmic extract; also called C5A M57L
B9: XPA23 heavy chain M57A (Fab, V domains shown)
VH: B1 VH with L51I, M57A
VL: B1 VL
notes: Fab, periplasmic extract; also called C5A M57A
B10: XPA23 heavy chain M57V (Fab, V domains shown)
VH: B1 VH with L51I, M57V
VL: B1 VL
notes: Fab, periplasmic extract; also called C5A M57V
B11: XPA23 heavy chain K31V (Fab, V domains shown)
VH: B1 VH with K31V, L51I
VL: B1 VL
notes: Fab, periplasmic extract; also called C5A K31V
B12: XPA23 heavy chain N104V (Fab, V domains shown)
VH: B1 VH with L51I, N104V
VL: B1 VL
notes: Fab, periplasmic extract; also called C5A N104V
B13: XPA23 heavy chain K31I (Fab, V domains shown)
VH: B1 VH with K31I, L51I
VL: B1 VL
notes: Fab, periplasmic extract; also called C5A K31I
B14: XPA23 heavy chain N104T (Fab, V domains shown)
VH: B1 VH with L51I, N104T
VL: B1 VL
notes: Fab, periplasmic extract; also called C5A N104T
B15: XPA23 heavy chain N104L (Fab, V domains shown)
VH: B1 VH with L51I, N104L
VL: B1 VL
notes: Fab, periplasmic extract; also called C5A N104L
B16: XPA23 heavy chain M57I (Fab, V domains shown)
VH: B1 VH with L51I, M57I
VL: B1 VL
notes: Fab, periplasmic extract; also called C5A M57I
B17: XPA23 heavy chain P53A (Fab, V domains shown)
VH: B1 VH with L51I, P53A
VL: B1 VL
notes: Fab, periplasmic extract; also called C5A P53A

biological target: T1, IL-1β (UniProt P01584 117-269); test: Biacore, Fab periplasmic extract
T1 construct: Antigen of XPA23

fold difference in affinity against the original [fold]	Binder
0.79	B1
1.08	B2
0.99	B3
0.86	B4
1.61	B5
1.21	B6
0.06	B7
0.06	B8
0.03	B9
0.03	B10
0.81	B11
1.27	B12
0.74	B13
0.95	B14
1.19	B15
0.03	B16
0.05	B17
